Reference: PMC9728185
Several values for one entry are separate records, joined by “and”; a condition that tells them apart may be missing. Identical values can stand only once.

Target: Glycerol dehydrogenase from Klebsiella pneumoniae (encoded by gldA, strain MGH78578) (Klebsiella pneumoniae strain MGH78578)
Experiment: SEC; analytical Superdex-200 10/300 GL, 20 mM Tris-HCl, 0.1 mM TCEP, 200 mM NaCl, pH 8.0, 0.5 ml/min; 200 ul of purified KpGlyDH at 4.94 mg/ml; masses from a standard curve of reference proteins; octamer and hexadecamer in equilibrium

stoichiometry N: 8 and 16
Substance: Glycerol dehydrogenase from Klebsiella pneumoniae (encoded by gldA, strain MGH78578) (enzyme)
